Measured values published in the supplement of paper PMC6755084.

B1: F1*; the commonest letter at each place (parent)
chain: GAGACCGCAACTGAAAAGTTGTTATCACTTGTCGTAAGACACTTTGGATGGGTTGAAGTTCTGCACGTAGAAGCAAAAGGC

Variants of: B1
Experiment: fraction ligated after 30 min (ligated reads / total reads); higher = more ligase activity
Conditions: with F1*sub RNA substrate (template-directed ligation), 42 °C
In short: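 Templates from an oligo pool were PCR-amplified, transcribed with T7 and gel-purified to give the ribozyme variants. Ligated and unligated products were separated on gel, reverse transcribed using barcoded primers, and read on a MiSeq. A quality filter of ≥20 was applied to core bases. Fraction ligated was taken as ligated reads as a share of all reads per variant.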

Variant | fraction ligated
GAGACCGCAACTGAAAAGTTGTTATCACTTGTCGTAAGACACATTGGACGGGTTGAAGTTCTGCACGTAGAAGCAAAAGGC [T43A T49C] | 0.605
GAGACCGCAACTGAAAAGTTGTTATCACTTGTCGTAAGACACATTGGAAGGGTTGAAGTTCTGCACGTAGAAGCAAAAGGC [T43A T49A] | 0.743
GAGACCGCAACTGAAAAGTTGTTATCACTTGTCGTAAGACACATTGGAGGGGTTGAAGTTCTGCACGTAGAAGCAAAAGGC [T43A T49G] | 0.797
GAGACCGCAACTGAAAAGTTGTTATCACTTGTCGTAAGACACATTGGATGGGTTGATGTTCTGCACGTAGAAGCAAAAGGC [T43A A57T] | 0.833
GAGACCGCAACTGAAAAGTTGTTATCACTTGTCGTAAGACACATTGGATGGGTTGAGGTTCTGCACGTAGAAGCAAAAGGC [T43A A57G] | 0.793
GAGACCGCAACTGAAAAGTTGTTATCACTTGTCGTAAGACACATTGGATGGGTTGACGTTCTGCACGTAGAAGCAAAAGGC [T43A A57C] | 0.792
GAGACCGCAACTGAAAAGTTGTTATCACTTGTCGTAAGACACCTTGGATGGGTTGCAGTTCTGCACGTAGAAGCAAAAGGC [T43C A56C] | 0.731
GAGACCGCAACTGAAAAGTTGTTATCACTTGTCGTAAGACACCTTGGATGGGTTGTAGTTCTGCACGTAGAAGCAAAAGGC [T43C A56T] | 0.755
GAGACCGCAACTGAAAAGTTGTTATCACTTGTCGTAAGACACCTTGGATGGGTTGGAGTTCTGCACGTAGAAGCAAAAGGC [T43C A56G] | 0.757
GAGACCGCAACTGAAAAGTTGTTATCACTTGTCGTAAGACACCGTGGATGGGTTGAAGTTCTGCACGTAGAAGCAAAAGGC [T43C T44G] | 0.836
GAGACCGCAACTGAAAAGTTGTTATCACTTGTCGTAAGACACCATGGATGGGTTGAAGTTCTGCACGTAGAAGCAAAAGGC [T43C T44A] | 0.833
GAGACCGCAACTGAAAAGTTGTTATCACTTGTCGTAAGACACCCTGGATGGGTTGAAGTTCTGCACGTAGAAGCAAAAGGC [T43C T44C] | 0.781
GAGACCGCAACTGAAAAGTTGTTATCACTTGTCGTAAGACACATAGGATGGGTTGAAGTTCTGCACGTAGAAGCAAAAGGC [T43A T45A] | 0.725
GAGACCGCAACTGAAAAGTTGTTATCACTTGTCGTAAGACACATGGGATGGGTTGAAGTTCTGCACGTAGAAGCAAAAGGC [T43A T45G] | 0.43
GAGACCGCAACTGAAAAGTTGTTATCACTTGTCGTAAGACACATCGGATGGGTTGAAGTTCTGCACGTAGAAGCAAAAGGC [T43A T45C] | 0.696
GAGACCGCAACTGAAAAGTTGTTATCACTTGTCGTAAGACACATTGGATTGGTTGAAGTTCTGCACGTAGAAGCAAAAGGC [T43A G50T] | 0.614
GAGACCGCAACTGAAAAGTTGTTATCACTTGTCGTAAGACACATTGGATAGGTTGAAGTTCTGCACGTAGAAGCAAAAGGC [T43A G50A] | 0.267
GAGACCGCAACTGAAAAGTTGTTATCACTTGTCGTAAGACACATTGGATCGGTTGAAGTTCTGCACGTAGAAGCAAAAGGC [T43A G50C] | 0.153
GAGACCGCAACTGAAAAGTTGTTATCACTTGTCGTAAGACACATTCGATGGGTTGAAGTTCTGCACGTAGAAGCAAAAGGC [T43A G46C] | 0.789
GAGACCGCAACTGAAAAGTTGTTATCACTTGTCGTAAGACACATTAGATGGGTTGAAGTTCTGCACGTAGAAGCAAAAGGC [T43A G46A] | 0.789
GAGACCGCAACTGAAAAGTTGTTATCACTTGTCGTAAGACACATTTGATGGGTTGAAGTTCTGCACGTAGAAGCAAAAGGC [T43A G46T] | 0.81
GAGACCGCAACTGAAAAGTTGTTATCACTTGTCGTAAGACATTTGGGATGGGTTGAAGTTCTGCACGTAGAAGCAAAAGGC [C42T T45G] | 0.557
GAGACCGCAACTGAAAAGTTGTTATCACTTGTCGTAAGACATTTAGGATGGGTTGAAGTTCTGCACGTAGAAGCAAAAGGC [C42T T45A] | 0.799

Variant | fraction ligated
GAGACCGCAACTGAAAAGTTGTTATCACTTGTCGTAAGACATTTCGGATGGGTTGAAGTTCTGCACGTAGAAGCAAAAGGC [C42T T45C] | 0.79
GAGACCGCAACTGAAAAGTTGTTATCACTTGTCGTAAGACACATTGGATGGGTTCAAGTTCTGCACGTAGAAGCAAAAGGC [T43A G55C] | 0.724
GAGACCGCAACTGAAAAGTTGTTATCACTTGTCGTAAGACACATTGGATGGGTTTAAGTTCTGCACGTAGAAGCAAAAGGC [T43A G55T] | 0.839
GAGACCGCAACTGAAAAGTTGTTATCACTTGTCGTAAGACACATTGGATGGGTTAAAGTTCTGCACGTAGAAGCAAAAGGC [T43A G55A] | 0.854
GAGACCGCAACTGAAAAGTTGTTATCACTTGTCGTAAGACACCTTGGATGGGTTGAAGTTCTGCACGTAGAAGCAAAAGGC [T43C] | 0.81
GAGACCGCAACTGAAAAGTTGTTATCACTTGTCGTAAGACACATTGGATGGGTTGAAGTTCTGCACGTAGAAGCAAAAGGC [T43A] | 0.855
GAGACCGCAACTGAAAAGTTGTTATCACTTGTCGTAAGACACATTGTATGGGTTGAAGTTCTGCACGTAGAAGCAAAAGGC [T43A G47T] | 0.643
GAGACCGCAACTGAAAAGTTGTTATCACTTGTCGTAAGACACATTGAATGGGTTGAAGTTCTGCACGTAGAAGCAAAAGGC [T43A G47A] | 0.804
GAGACCGCAACTGAAAAGTTGTTATCACTTGTCGTAAGACACATTGCATGGGTTGAAGTTCTGCACGTAGAAGCAAAAGGC [T43A G47C] | 0.515
GAGACCGCAACTGAAAAGTTGTTATCACTTGTCGTAAGACACATTGGATGGGTTGCAGTTCTGCACGTAGAAGCAAAAGGC [T43A A56C] | 0.79
GAGACCGCAACTGAAAAGTTGTTATCACTTGTCGTAAGACACATTGGATGGGTTGGAGTTCTGCACGTAGAAGCAAAAGGC [T43A A56G] | 0.782
GAGACCGCAACTGAAAAGTTGTTATCACTTGTCGTAAGACACATTGGATGGGTTGTAGTTCTGCACGTAGAAGCAAAAGGC [T43A A56T] | 0.81
GAGACCGCAACTGAAAAGTTGTTATCACTTGTCGTAAGACATCTTGGATGGGTTGAAGTTCTGCACGTAGAAGCAAAAGGC [C42T T43C] | 0.828
GAGACCGCAACTGAAAAGTTGTTATCACTTGTCGTAAGACATGTTGGATGGGTTGAAGTTCTGCACGTAGAAGCAAAAGGC [C42T T43G] | 0.818
GAGACCGCAACTGAAAAGTTGTTATCACTTGTCGTAAGACATTCTGGATGGGTTGAAGTTCTGCACGTAGAAGCAAAAGGC [C42T T44C] | 0.855
GAGACCGCAACTGAAAAGTTGTTATCACTTGTCGTAAGACATTGTGGATGGGTTGAAGTTCTGCACGTAGAAGCAAAAGGC [C42T T44G] | 0.833
GAGACCGCAACTGAAAAGTTGTTATCACTTGTCGTAAGACATTATGGATGGGTTGAAGTTCTGCACGTAGAAGCAAAAGGC [C42T T44A] | 0.862
GAGACCGCAACTGAAAAGTTGTTATCACTTGTCGTAAGACACCTTGGATAGGTTGAAGTTCTGCACGTAGAAGCAAAAGGC [T43C G50A] | 0.187
GAGACCGCAACTGAAAAGTTGTTATCACTTGTCGTAAGACACCTTGGATCGGTTGAAGTTCTGCACGTAGAAGCAAAAGGC [T43C G50C] | 0.111
GAGACCGCAACTGAAAAGTTGTTATCACTTGTCGTAAGACACCTTGGATTGGTTGAAGTTCTGCACGTAGAAGCAAAAGGC [T43C G50T] | 0.441
GAGACCGCAACTGAAAAGTTGTTATCACTTGTCGTAAGACATTTTGGAAGGGTTGAAGTTCTGCACGTAGAAGCAAAAGGC [C42T T49A] | 0.791
GAGACCGCAACTGAAAAGTTGTTATCACTTGTCGTAAGACATTTTGGACGGGTTGAAGTTCTGCACGTAGAAGCAAAAGGC [C42T T49C] | 0.774
GAGACCGCAACTGAAAAGTTGTTATCACTTGTCGTAAGACATTTTGGAGGGGTTGAAGTTCTGCACGTAGAAGCAAAAGGC [C42T T49G] | 0.782

Variant | fraction ligated
GAGACCGCAACTGAAAAGTTGTTATCACTTGTCGTAAGACACCTTGGGTGGGTTGAAGTTCTGCACGTAGAAGCAAAAGGC [T43C A48G] | 0.764
GAGACCGCAACTGAAAAGTTGTTATCACTTGTCGTAAGACACCTTGGCTGGGTTGAAGTTCTGCACGTAGAAGCAAAAGGC [T43C A48C] | 0.723
GAGACCGCAACTGAAAAGTTGTTATCACTTGTCGTAAGACACCTTGGTTGGGTTGAAGTTCTGCACGTAGAAGCAAAAGGC [T43C A48T] | 0.668
GAGACCGCAACTGAAAAGTTGTTATCACTTGTCGTAAGACACCTAGGATGGGTTGAAGTTCTGCACGTAGAAGCAAAAGGC [T43C T45A] | 0.574
GAGACCGCAACTGAAAAGTTGTTATCACTTGTCGTAAGACACCTTGGATGGGTTGAGGTTCTGCACGTAGAAGCAAAAGGC [T43C A57G] | 0.785
GAGACCGCAACTGAAAAGTTGTTATCACTTGTCGTAAGACACCTTGGATGGGTTGATGTTCTGCACGTAGAAGCAAAAGGC [T43C A57T] | 0.79
GAGACCGCAACTGAAAAGTTGTTATCACTTGTCGTAAGACACCTTGGATGGGTTGACGTTCTGCACGTAGAAGCAAAAGGC [T43C A57C] | 0.733
GAGACCGCAACTGAAAAGTTGTTATCACTTGTCGTAAGACACCTTTGATGGGTTGAAGTTCTGCACGTAGAAGCAAAAGGC [T43C G46T] | 0.776
GAGACCGCAACTGAAAAGTTGTTATCACTTGTCGTAAGACACCTTAGATGGGTTGAAGTTCTGCACGTAGAAGCAAAAGGC [T43C G46A] | 0.789
GAGACCGCAACTGAAAAGTTGTTATCACTTGTCGTAAGACACCTTCGATGGGTTGAAGTTCTGCACGTAGAAGCAAAAGGC [T43C G46C] | 0.791
GAGACCGCAACTGAAAAGTTGTTATCACTTGTCGTAAGACACATTGGCTGGGTTGAAGTTCTGCACGTAGAAGCAAAAGGC [T43A A48C] | 0.734
GAGACCGCAACTGAAAAGTTGTTATCACTTGTCGTAAGACACATTGGTTGGGTTGAAGTTCTGCACGTAGAAGCAAAAGGC [T43A A48T] | 0.774
GAGACCGCAACTGAAAAGTTGTTATCACTTGTCGTAAGACACATTGGGTGGGTTGAAGTTCTGCACGTAGAAGCAAAAGGC [T43A A48G] | 0.807
GAGACCGCAACTGAAAAGTTGTTATCACTTGTCGTAAGACACCTTGGATGGGTTCAAGTTCTGCACGTAGAAGCAAAAGGC [T43C G55C] | 0.571
GAGACCGCAACTGAAAAGTTGTTATCACTTGTCGTAAGACACCTTGGATGGGTTAAAGTTCTGCACGTAGAAGCAAAAGGC [T43C G55A] | 0.803
GAGACCGCAACTGAAAAGTTGTTATCACTTGTCGTAAGACACCTTGGATGGGTTTAAGTTCTGCACGTAGAAGCAAAAGGC [T43C G55T] | 0.817
GAGACCGCAACTGAAAAGTTGTTATCACTTGTCGTAAGACACAGTGGATGGGTTGAAGTTCTGCACGTAGAAGCAAAAGGC [T43A T44G] | 0.804
GAGACCGCAACTGAAAAGTTGTTATCACTTGTCGTAAGACACAATGGATGGGTTGAAGTTCTGCACGTAGAAGCAAAAGGC [T43A T44A] | 0.848
GAGACCGCAACTGAAAAGTTGTTATCACTTGTCGTAAGACACACTGGATGGGTTGAAGTTCTGCACGTAGAAGCAAAAGGC [T43A T44C] | 0.836
GAGACCGCAACTGAAAAGTTGTTATCACTTGTCGTAAGACACCTTGCATGGGTTGAAGTTCTGCACGTAGAAGCAAAAGGC [T43C G47C] | 0.276
GAGACCGCAACTGAAAAGTTGTTATCACTTGTCGTAAGACACCTTGAATGGGTTGAAGTTCTGCACGTAGAAGCAAAAGGC [T43C G47A] | 0.767
GAGACCGCAACTGAAAAGTTGTTATCACTTGTCGTAAGACACCTTGTATGGGTTGAAGTTCTGCACGTAGAAGCAAAAGGC [T43C G47T] | 0.446
